Source: a protein production outcome set (Wang et al. 2014)

Assay: label from the status in PepcDB records

Sequence | protein production
MPKNDLLLRSLRGEPIGRFPVWLMRQAGRYMPEYRKIRNRVKNFLELCKNVDLATEISLLPLKILGVDAIIIFSDILVPLEPLGVKVEFVEGEGPKLSWSGKVSDLKKYDPSQNAYVYEIIKRVKEAQDEVPVIGFAGAPFTLLSYLIEGGASKDFKSTKLFMWENPKEYKRLMDILTETVLAYLKEQIKAGADVVQIFDSWVNNLSLEDYGEYVYPYVNYLISELKDFSDTPVIYFFRGSSSFIDLAVDYRADALSVDWSVDIPELFKIYDKGFQGNLEPAVLYASEEVIEEKTLGLLRRIPVKTRYVFNLGHGLAPDMELEKVKYLVDLVKSFPLT | not failed
MRFCIMKKAVVLLSGGLDSTTCLALAKSQGFACYALSFSYGQRHSAELCAATRIAKHMGAADHKIVTLDIALFGGSALTDASIEVPEFKESPEIPVTYVPARNTIFLAMALGYAESIGARDIFIGASSVDYSHYPDCRPEFIESFQSLANLATKAGIEGDRFTINAPLQYLSKVQTIQLGTELGVDYGLTVSCYQANEAGEACGQCDSCTFRKRGFKSAGVDDPTRYQKCVHI | failed
MRPETLAVIQKQLTKIKAAQRNMTDNEVLRSMDEIMFCFENCYTEDETFTHIAQMFPSYVLKIVKSFFQISKAVTDEESREAYLTDAEECASVRRSQARDTSEEAKRSQDTLMGRLILIFMRPETREIIEMQLLPAMKLVKERLEREVEKQSMDEFMFCFENCYTEKETEMHVTRKFPSLKQSDVGIGFQTFIGLIDKESSREAYLKDAEDCANVRRIEARQGEASTSHKCEPNCNKH | failed
MQAVRLFQGYLWHPRALALDLKALLPGEVAGARLLWDEVPPPTPFFEDGTPTHTQRFYQLTLLVLTEEPPEALKPLAEEAAEALGEVLEGLPPEVGWLLLEDLRPL | not failed
MLNSDIYLKESLYDLLSLWRTPAFFLPAMLFPLVFYVFFGIVFNFSAAQGEYMLVSYACFGMMGPALFNYATAVASDRAQGWLTLKRISPMPLSAYVVAKFFSSLVFAACIALMLFITAALFADVQLLLWQWATLFTVLLIGTLPFALIGLLMGLCLSDKAAPAVVNLVYLPMAFLSGLWVPIQFLPDTVRYIAYGLPSYHYSQLAHAVIGTNQGHNLWLHGLYLVAFCGVLIAVIYWRYQRLSR | failed
MKEKVVLAYSGGLDTSVILKWLCEKGFDVIAYVANVGQKDDFVAIKEKALKTGASKVYVEDLRREFVTDYIFTALLGNAMYEGRYLLGTAIARPLIAKRQVEIAEKEGAQYVAHGATGKGNDQVRFELTYAALNPNLKVISPWKDPEFLAKFKGRTDLINYAMEKGIPIKVSKKRPYSEDENLMHISHEAGKLEDPAHIPDEDVFTWTVSPKDAPDEETLLEIHFENGIPVKVVNLKDGTEKTDPLELFEYLNEVGAKNGVGRLDMVENRFIGIKSRGVYETPGATILWIAHRDLEGITMDKEVMHLRDMLAPKFAELIYNGFWFSPEMEFLLAAFRKAQENVTGKVTVSIYKGNVMPVARYSPYSLYNPELSSMDVEGGFDATDSKGFINIHALRLKVHQLVKKGYQR | not failed
MFIIIGDLIAFVISVLVTLIIASVPVWVAAKIVAKRSTFGQAVAATLLSLIIFFILLFVFSIFTPFIGGIFGFIGALWVFRKVYNIGWVDSLALTIIAIFIAIMIYIILGAFLFPVIHTSMIHEHAVVTSIIV | failed
MVAVRSAHLNTEGEFVPDAWIASLGIASQQSCERLAETWRYCEQQTQNQPDASLLLWRGIEMVEILSTLSMDNDSMRAALLFPLADANVVDEATLEAAFGKNIVDLVHGVRDMDAIRQLKATQNDSDASEQVDNIRRMLLAMVEDFRCVVIKLAERIAHLREVKDAPEEERVLAAKECTNIYAPLANRLGIGQLKWELEDFCFRYLHPDEYKKIAKLLHERRIDRAQYIDDFVKTLRDAMKEEGVQAEIYGRPKHIYSIWRKMQKKALSFDELFDVRAVRIVVERLQDCYGALGIVHTHYRHMPDEFDDYVANPKPNGYQSIHTVVLGPSGKTLEIQIRTRQMHEDAELGVAAHWKYKEGTAVGGRSGYEGRIAWLRKLLAWQEEVSDSNDVLDEVRSQVFDDRVYVFTPKGDVVDLPAGSTPLDFAYHIHSDIGHRCIGAKIGGRIVPFTYQLHMGDQIEIITQKQPNPSRDWLNPNLGYITTSRGRSKIQNWFRKQDRDKNILAGRQILDDELAHLGVSLKAAEKLLLPRYNVNSLDELLAAIGGGDVRLNQMVNFLQSQLKQPSAEELDREALRQLTQKTHQPPARSNNKDNGRVVVEGVGNLMHHIARCCQPIPGDEITGFITRGRGISIHRADCEQLDELRASSPERIVDAVWGESYSSGYSLVVRVIANDRSGLLRDITTILANEKVNVLGVASRSDTKQQLATIDMDIEIYNLQVLGRVLAKLNQLPDVIDARRQQGA | failed
MEYVNPEGLRLDGRRFNEMRQIVAEVGVVSKADGSAVFEMGNTKVIAAVYGPREIQNKSQQKKNDHAVVLCEYSMAQFSTGDRRRQKFDRRSTELSLVIRQTMEACILTELMPHSQIDIFLQVLQADGGTRSACINAATLALADAGIPMRDLAVSCSAGYLNSTPLLDLNYVEDSAGGADVTVGILPKLDKVSLLQMDAKLPMETFETVFALASEGCKAIAERIREVLQENTKQLEYRRAA | failed
MLAPGMGEWVYKANLFLFGEFAYYYPFFLFILNYVYYKRNYKLANFTRRELFGIGFAFFSSLLLFAVFYPNSGYILELAYAIFSTILGHTGSGIFALLLLLFSLVLLFPKFAKEILKIELDFTYLLKVEQAFKSLLMRVFGGENEKEDVGKSEPIVPKLNILQDSIYGNLQINKKGETNNLEQIIKDSNINASKNSITTAKENFEKLKNQILDETIEIDKQSLKESRSFVHEHSQQVRNFAQKASKMSISLDEDFNFISEEEVDMIPERFLKPKKLEDIKQIDTNKNLDEPSYKRKNIEIPVSNQEVKPKIFTKELELRENLIKKEKLEQEYKAYQNEILENKVKQEIKKLEEYDAINSSDIIEGNKYSFNSPKTIKTETEESDKINENKNLDKADNIFEFAPIVEELNHPYIEPTPIKNINEIVIEEKNTLDFIQNTETKIDNEKTNDQEIKLQKAVLAKEIAINQALLREIEQGEIEKPKDFTLPPLDFLANPKEHKQEINESEIDKKIYNLLEKLRRFKIGGDVISTYVGPVVTTFEFRPSADVKVSRILNLQDDLTMALMAKSIRIQAPIPGKDVVGIEVPNDEIQTIYLREILQSEVFKNAKSPLTIALGKDIVGNAFVTDLKKLPHLLIAGTTGSGKSVGINSMLLSLLYRNSPKTLRLMMIDPKMLEFSIYNDIPHLLTPVITDPKKAVNALSNMVAEMERRYRLMADAKTKNIENYNEKMKELGGEKLPFIVVIIDELADLMMTAGKDVEFYIGRLAQMARASGIHLIVATQRPSVDVVTGLIKANLPSRISYKVGQKIDSKVILDAMGAESLLGRGDCLFTPPGTSSIVRLHAPFASEFEIEKIVDFLKDQQSVEYDESFLKDQQSVGVTTNESFDGEADELYEEAKRVILEDGKTSISYLQRRLKIGYNRSANIIEQLTQNGILSEPDAKGQREIL | failed
MTTTTAQPAASLAAALEHAERLLEVDPVMAAEQARAILEVVPRHADTTRVLAAAQRLSGDAEGGLATVAPLAMALPNLPLAQLELALCLERLGRTAEAARAFDRVSALEPRLSEAWRGLSESLELLGDRQGAERALARQLRASTRDPLLVEAATALAEDRLGEAERLLRDRLKADAGDVAAIRMLAETGARLGRYADAEALLTRCMELAPNFAAARHNLATMLYRQNKNLEALAQIEQLVAKDARHPGYANLYAAILARLGEYDRAIAVYGQVLADYPNQPKGWMSYGHALKTVGRQADSVAAYRKALDLAPTLGEVWWSLANLKTVRFTPEDLAAMSQALEAEGLSEDDRLHLHYALGKAQEDAQDWDASFQHYAAGAAIRREQLDYDADENTADTVRTKAVFSPAFIAARGGQGCAAPDPIFVVGLPRSGSTLVEQILASHSLVEGTMELPDLIVMARRLGGKTAKRAESTYPESLAELSPEDLRALGEEFLERTRIQRKTDKPFFIDKMPNNFAHTGLIHLILPNAKIIDARRHPLGCCFSGFKQHFARGQAFSYDLTDIGRYYADYVDLMAHFDAVLPGRVHRVIYERMIADPEAEIRALLDHCGLPFEEACLSPHENDRAVRTASSEQVRRPIFKDAVEHWQKFESHLGPLKQALGPVLTAYPDAPVI | failed
MDPYFELRLSELKSIPVVTWLQFSIDNAREPGILVQSGQIWALLPPELTEKTRCFAIELGNECMRLKDYDNDDGKRVWLSDDELTRFIEQAETPHQRLAFLLAGRVGLRRSEIIEVCPQDLVDGPTGDHIRVWESYAKRDKYREPPVPQEVVTIAETLAYQQDDDEPLLDVAGSTVYRWVRRAADELEEETGDRGWQYLDVHDLRRTWGTYLLEQGVIPSVVMSFGGWEDWDTFRKHYLGEFSPEAIRRERGKVDFLEGGDESAEVVHPGTMPPASHHTAD | failed
MITVVGGTFSKLHKGHKALLNTAIDTGNEVVIGLTSDEYVKKNKVYPAIPYSVRYRTLYNYMIKRTNKFRIRQIDDRNGNAPYEKDYEVIVVSPETYPRSLKINEIRISNGLPPLKIIRVPYVLAQDLFPISSTRIINGEID | not failed
MSTVNNHRVVIRRRKVRRGGHHGGSWKIAYADFITAMMAFFLVMWLISIVPREELKGIAEYFRMPLRVALTGGPSSSAETSAIPGGGQDPLRSQGDVRRAEGNRVEAQPMGDAERRDRHRLERLKVRLENLIEESPVLKNFRPQLLIDMTTEGLRIQIVDNQNRPMFATGSADVQPYMRDILRELGPVLNDLPNKISIAGHTDASQYARGERAYSNWELSADRANASRQELVAGGMHEGKVLRIQGLASSMSLVKDDPFAAVNRRISLVVLNASTQRRIENENAAAADVNARDAQGVGAALAGQLAASGSDGGAR | failed
MELASPISSSFLEAFSRLSLERYSFLSIATSTIPSAAFLTTGFSSFNTSRAKLNASSMISGSLVLTTISFSTLRAETFFFSDFPFRMFLIQENIILATLIILAPRVATPSAAYSFIGSGLFSTIPINISESLVLISSGNSMKVTMAFIVSTACKTTVSSLSSNSLIRSGITSFTSSIPSSFFIASFFIMYRVPFFIKGSFSCNAFLSIDILFSLSSSTIWRAFLTLHPFKFSIYSS | failed
DKLDLSPIDYYGSGSYWKTEAQATAYIDGIHKHLRDAAWQHTITFGELRGGRFITGASSDGMGVSNGDIILQNFDETHTGVSKFGDLFGRITNLNLFIARVTDATYLSDEMKNFYLGEVYGLRAFYYFDLYRIYGGVPLRLTADVVEGVIDPNKLYMARSTPKEVMTQIKSDLNKSMEYFGNMNDFDPYKRGKKVYWSKAATECLMGEVYLWTSKVTTGDDVANPADLTIAKTHLESVLNNYNLKMLDDFSQVFNAKNKANDEIIFAIRFLEGEATNSNGTFTYNVGTGSTKNRYQANGEVFGDALDIQNTGNQTYEYNKAVYQNFDDADTRKEATFIASYNKDGKTGELSLYGTHVRKNIGYVNAQGARVYCGDYIFYRLPWVYLTLAEIANMEGDNAAVAKYINLVRKRAYGNAWDETLYAYPETADFTTNELAILHEKDKEFIQEGQRWWDLRRMTLTKGGTPLVFCKEGSLLGDAPILNKSTEAHKLLWPIEKTMLNKDPALEQTPGYK | not failed
MWNLETDRVIKEIEKSNGKNIVFHAPEGLKLAVEKEIEKINDYFNSTKNLIMWGAPCYGACDLCDHELKYNNIDLIIHYGHEELPYAKPDIPTIFIHCYYIYDEIEQNNILNKIDEYLQNNPNTIITTTIQFKELLKKYNPNIILGCRANISNKPKSELEQGTEKETENSKILYIGTGRFHPLMLCYKFKKSVNLFNPTSKEFSAISEEEVNKFIKKRIGAISKLLINPPKKIGVVLSTKKGQNRINVYNKIINLLKDNNIEYMPIILNNASPDNLFYDVSAYIICACPRIVLDDYLNYNKTLLTPKEFEMYIKKDFEYVFDEILFDDFEP | failed
IYGLVQRCVIIQKDDNGFGLTVSGDNPVFVQSVKEDGAAMRAGVQTGDRIIKVNGTLVTHSNHLEVVKLIKSGSYVALTVQGRPPGSPQIPLADSEVEPSVIGHMSPIMTSPHSPGASGNMERITSPVLMGEENNVVHNQK | failed
